The source of these data is patent US20220317121A1.

Common to all, as to assay: line blot with purified recombinant antigen
One assay has as its target H8-CD2BP2[human] (human) (UniProt O95400).
Assay [1] concerns the target H8-TJP1[human](aa1-575) (human) (UniProt Q07157).
The target of assay [2] is NVL[human]-IF1-H6 (human) (UniProt O15381).
Chain of UniProt O15381 (O15381 other isoform, or with tags, fused parts or gaps limits assumed): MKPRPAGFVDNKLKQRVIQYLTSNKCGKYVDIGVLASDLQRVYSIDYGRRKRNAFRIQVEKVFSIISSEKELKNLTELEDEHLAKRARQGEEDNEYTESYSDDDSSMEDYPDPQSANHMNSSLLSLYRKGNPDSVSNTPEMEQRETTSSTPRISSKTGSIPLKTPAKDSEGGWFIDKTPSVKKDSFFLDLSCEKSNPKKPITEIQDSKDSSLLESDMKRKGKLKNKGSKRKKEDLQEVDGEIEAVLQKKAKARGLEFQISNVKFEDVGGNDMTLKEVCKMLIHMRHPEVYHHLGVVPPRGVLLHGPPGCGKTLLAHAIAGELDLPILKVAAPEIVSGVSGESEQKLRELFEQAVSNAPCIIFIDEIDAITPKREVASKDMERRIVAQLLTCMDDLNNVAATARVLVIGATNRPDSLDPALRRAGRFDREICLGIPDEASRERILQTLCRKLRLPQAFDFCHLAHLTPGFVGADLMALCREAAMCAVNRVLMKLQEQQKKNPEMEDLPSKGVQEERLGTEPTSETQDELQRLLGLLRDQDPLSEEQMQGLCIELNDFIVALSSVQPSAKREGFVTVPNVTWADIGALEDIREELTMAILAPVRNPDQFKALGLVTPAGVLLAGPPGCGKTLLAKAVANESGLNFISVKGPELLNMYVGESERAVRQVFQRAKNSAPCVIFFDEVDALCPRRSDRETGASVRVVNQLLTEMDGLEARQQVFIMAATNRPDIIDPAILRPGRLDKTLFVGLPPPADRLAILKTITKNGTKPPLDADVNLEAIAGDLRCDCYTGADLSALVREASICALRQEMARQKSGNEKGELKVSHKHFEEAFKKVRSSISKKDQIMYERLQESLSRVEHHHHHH

Chain of UniProt Q07157 (Q07157 other isoform, or with tags, fused parts or gaps limits assumed): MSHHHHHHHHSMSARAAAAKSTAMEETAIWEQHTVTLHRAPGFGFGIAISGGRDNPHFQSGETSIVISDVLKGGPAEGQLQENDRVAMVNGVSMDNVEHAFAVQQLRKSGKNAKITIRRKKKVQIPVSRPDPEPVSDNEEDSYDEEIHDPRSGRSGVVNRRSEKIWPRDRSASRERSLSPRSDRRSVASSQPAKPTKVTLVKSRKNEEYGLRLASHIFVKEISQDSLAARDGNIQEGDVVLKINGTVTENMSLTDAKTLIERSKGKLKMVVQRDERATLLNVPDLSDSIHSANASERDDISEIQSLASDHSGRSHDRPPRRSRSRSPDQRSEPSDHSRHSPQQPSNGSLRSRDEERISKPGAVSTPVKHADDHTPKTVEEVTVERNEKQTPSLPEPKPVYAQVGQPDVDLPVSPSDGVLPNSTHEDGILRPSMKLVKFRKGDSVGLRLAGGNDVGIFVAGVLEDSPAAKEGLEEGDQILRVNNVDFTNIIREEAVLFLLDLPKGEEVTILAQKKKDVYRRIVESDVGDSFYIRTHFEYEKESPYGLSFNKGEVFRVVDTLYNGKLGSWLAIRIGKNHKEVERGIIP
Chain of UniProt O95400 (O95400 other isoform, or with tags, fused parts or gaps limits assumed): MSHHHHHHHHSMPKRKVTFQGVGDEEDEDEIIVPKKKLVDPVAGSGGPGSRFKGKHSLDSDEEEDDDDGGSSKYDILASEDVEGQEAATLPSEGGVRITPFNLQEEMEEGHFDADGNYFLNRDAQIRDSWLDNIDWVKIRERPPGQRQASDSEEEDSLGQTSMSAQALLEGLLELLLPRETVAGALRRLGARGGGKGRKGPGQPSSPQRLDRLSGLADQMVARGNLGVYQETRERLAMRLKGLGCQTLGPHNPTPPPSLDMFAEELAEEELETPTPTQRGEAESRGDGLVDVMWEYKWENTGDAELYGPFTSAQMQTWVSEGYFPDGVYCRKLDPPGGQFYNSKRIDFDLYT

Turning to “anti-His-tag-AP (monoclonal anti-His-AP antibody produced in mouse, A5588, Sigma-Aldrich)”, the results for the band intensity (with H8-CD2BP2[human] (human); in assay [1]; in assay [2]) were 111, 101 and 15, respectively.
